The text below walks through data of patent US20210070872A1 (AGENUS, published 2021).

In this test the target is T1, biotinylated GITR (human, UniProt Q9Y5U5 26-161, limits assumed, biotinylated (sites not given)).
T1 construct: also called GITR-bio; Biotin-GITR
T1 sequence: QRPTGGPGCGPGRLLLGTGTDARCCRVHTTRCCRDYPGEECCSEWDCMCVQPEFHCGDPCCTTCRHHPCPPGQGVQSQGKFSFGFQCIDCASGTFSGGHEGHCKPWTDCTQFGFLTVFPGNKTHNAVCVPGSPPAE
The test is described as follows: BLI (Octet), biotin-GITR on streptavidin tips, antibody supernatant. The protocol: Several hundred germlined antibodies were selected based on binding kinetics as determined by Octet measurements (Octet RED 96 system; ForteBio™ Inc., Menlo Park, Calif.). The experimental procedure was configured according to the instruction manual of the instrument. Biotin-GITR was bound to Streptavidin biosensor (SA) and PBS (pH 7.4) was used as a blank control. Briefly, the interaction analyses were conducted at 30° C. in running buffer (PBS, 0.05% Tween, pH7.4). Sensor tips were pre-wet for 10 minutes in running buffer immediately prior to use, and the micro plates used in the Octet were filled with 200 μl of sample or buffer per well and agitated at 800 rpm. For the experiments, commercially available precoated SA tips were used. Biotinylated GITR was loaded onto the ForteBio SA fibers in PBS pH7.4 for 10 minutes and washed for 4 minutes. For the association phase, the ligand-coated SA tips were immersed for 5 minutes in cell culture supernatant that was diluted 1:10 in running buffer prior to the measurement. Dissociation of the antibody-antigen complex was measured in wells containing the Octet buffer alone for 5 minutes. After each run, the tips were regenerated with Glycine (10 mM, pH 2.0). Affinity, Kₒₙ and Koff were determined with Octet evaluation software v6.3 using a 1:1 binding model with local full fitting.
Background: BLI is a label-free optical method that tracks binding on a fibre tip over time.

Numbering of substitutions follows the chain as printed.

B1: germline variant antibody 55 (H1916F10 / K1916F10) (antibody, V domains shown)
VH: QVQLVQSGTEVKKPGASVKVSCKASGYTFTDYAMYWVRQAPGQGLEWIGLIRTYSGGVTYNQKFQGRVTMTVDTSISTAYMELSRLRSDDTAVYYCAKSGTVRGFAYWGQGTLVTVSS
VL: DIVMTQSPDSLAVSLGERATINCKSSQSLLNSGNQKNYLSWYQQKPGQPPKLLIYWASTRESGVPDRFSGSGSGTDFTLTISSVQAEDVAVYHCQNDYSFPYTFGQGTKLEIK
notes: IGHG1/IGKC expression vectors; measured from CHO culture supernatant; also called Antibody ID 55
Turning to B1, the affinity, expressed as Kd, was 1.27 nM; the koff – broadly, the rate constant with which the complex falls apart – is 0.00055 s⁻¹; the kon (as a rule, a measure of how fast the partners come together) is 435000 M⁻¹ s⁻¹.

B2: germline variant antibody 70 (H1917B04 / K1917B04) (antibody, V domains shown)
VH: B1 VH with D31G, L45M, L50V, G57D, Q65K, G66D, V68A
VL: B1 VL with V84L
notes: IGHG1/IGKC expression vectors; measured from CHO culture supernatant; also called Antibody ID 70
Regarding B2, the Kd (commonly a measure of binding affinity in units of concentration) amounted to 2.01 nM, the koff is 0.000879 s⁻¹ and the kon was found to be 437000 M⁻¹ s⁻¹.

B3: germline variant antibody 35 (H1916D05 / K1916D05) (antibody, V domains shown)
VH: B1 VH with T9A, V11A, A24G, D31G, L45M, L50V, Y54F, G57D, Q65R
VL: B1 VL with S40T, Q43H, S69T, H93Y, F100Y
notes: IGHG1/IGKC expression vectors; measured from CHO culture supernatant; also called Antibody ID 35
B3 came in with a Kd of 0.187 nM, a koff of 0.00024 s⁻¹ and a kon of 1.29e+06 M⁻¹ s⁻¹.

B4: germline variant antibody 37 (H1916D07 / K1916D07) (antibody, V domains shown)
VH: B1 VH with A24G, D31E, L45M, Y54F, G57E, Q65K, G66D
VL: B1 VL with S40T, S69T, V84L, D97E, F100Y
notes: IGHG1/IGKC expression vectors; measured from CHO culture supernatant; also called Antibody ID 37
B4 returned a Kd of 0.0317 nM, a koff of 0.000242 s⁻¹ and a kon of 7.64e+06 M⁻¹ s⁻¹.

B5: germline variant antibody 49 (H1916E11 / K1916E11) (antibody, V domains shown)
VH: B1 VH with A24G, D31G, I48M, L50V, G57D, Q65R, G66E, V68A
VL: B1 VL with S40T, Q43H
notes: IGHG1/IGKC expression vectors; measured from CHO culture supernatant; also called Antibody ID 49
The molecule B5 came in with a Kd of 2.09 nM, a koff of 0.000707 s⁻¹ and an on-rate (kon) of 338000 M⁻¹ s⁻¹.

B6: germline variant antibody 97 (H1917G07 / K1917G07) (antibody, V domains shown)
VH: B1 VH with A24G, D31E, Y35H, L45M, Y54F, V58L, T59S, Q65R, G66D, T74K
VL: B1 VL with S40T, Q43H, S69T, D97E
notes: IGHG1/IGKC expression vectors; measured from CHO culture supernatant; also called Antibody ID 97
Turning to B6, binding was characterised by a dissociation constant (Kd) of 1.43 nM, the off-rate (koff) is 0.000761 s⁻¹ and the on-rate constant (kon) was 534000 M⁻¹ s⁻¹.

B7: germline variant antibody 5 (H1916A06 / K1916A06) (antibody, V domains shown)
VH: B1 VH with T9A, A24G, D31E, Y35H, I48M, Q65R
VL: DIVMTQSPDSLAAPGERATINCKSSQSLLNSSNQKNYLTWYHQKPGQPPKLLIYWASTRESGVPDRFTGSGSGTDFTLTISSVQAEDVAVYYCQNEYSFPYTFGQGTKLEIK
notes: IGHG1/IGKC expression vectors; measured from CHO culture supernatant; also called Antibody ID 5
In turn, B7 displayed a Kd of 1.63 nM, a koff of 0.000966 s⁻¹ and a kon of 591000 M⁻¹ s⁻¹.

B8: germline variant antibody 42 (H1916E01 / K1916E01) (antibody, V domains shown)
VH: B1 VH with L50V, Y54F, G57D, V58L, G66D
VL: B1 VL with V84L, H93Y, F100Y
notes: IGHG1/IGKC expression vectors; measured from CHO culture supernatant; also called Antibody ID 42
The molecule B8 displayed a Kd of 0.377 nM, a koff of 0.000157 s⁻¹ and a kon of 417000 M⁻¹ s⁻¹.

B9: germline variant antibody 78 (H1917D01 / K1917D01) (antibody, V domains shown)
VH: B1 VH with T9A, A24G, L50V, R52K, Q65R, G66D, V68A, S88G, Q110R
VL: B1 VL with S40T, Q43H, L52M, S69T, F100Y
notes: IGHG1/IGKC expression vectors; measured from CHO culture supernatant; also called Antibody ID 78
On to B9, for which the affinity, expressed as Kd, was 1 nM; the koff came out at 0.000327 s⁻¹; the kon was found to be 325000 M⁻¹ s⁻¹.

B10: germline variant antibody 58 (H1916G04 / K1916G04) (antibody, V domains shown)
VH: B1 VH with T9A, A24G, I48M, L50V, Q65K, V68A, T74K
VL: B1 VL with Q43H, F100Y
notes: IGHG1/IGKC expression vectors; measured from CHO culture supernatant; also called Antibody ID 58
The molecule B10 displayed a dissociation constant (Kd) of 1.58 nM, a koff of 0.000415 s⁻¹ and a kon of 263000 M⁻¹ s⁻¹.

B11: germline variant antibody 71 (H1917B07 / K1917B07) (antibody, V domains shown)
VH: B1 VH with T9A, D31G, L45M, I48M, L50V, Y54F, Q65R, V68A
VL: B1 VL with G33S, S40T, S69T, F100Y
notes: IGHG1/IGKC expression vectors; measured from CHO culture supernatant; also called Antibody ID 71
The molecule B11 returned a Kd of 0.241 nM, a koff of 0.000252 s⁻¹ and a kon of 1.05e+06 M⁻¹ s⁻¹.

B12: germline variant antibody 102 (H1917H02 / K1917H02) (antibody, V domains shown)
VH: B1 VH with D31G, L50V, T59S, Q65R, G66D
VL: B1 VL with G33S, S69T, H93Y, F100Y
notes: IGHG1/IGKC expression vectors; measured from CHO culture supernatant; also called Antibody ID 102
As for B12, binding was characterised by a dissociation constant (Kd) of 1.97 nM, the koff is 0.000632 s⁻¹ and the kon amounted to 321000 M⁻¹ s⁻¹.

B13: germline variant antibody 80 (H1917D07 / K1917D07) (antibody, V domains shown)
VH: B1 VH with D31E, Y35H, L45M, I48M, Y54F, G57D, T59S, Q65R
VL: B1 VL with G33S, S40T, S69T, V84L, H93Y
notes: IGHG1/IGKC expression vectors; measured from CHO culture supernatant; also called Antibody ID 80
B13 showed a dissociation constant Kd of 0.696 nM, a koff of 0.000454 s⁻¹ and a kon of 652000 M⁻¹ s⁻¹.

B14: germline variant antibody 94 (H1917G01 / K1917G01) (antibody, V domains shown)
VH: B1 VH with A24G, D31G, L50V, Y54F, Q65R, G66D, T74K, L113F
VL: B1 VL with S40T, S69T, F100Y
notes: IGHG1/IGKC expression vectors; measured from CHO culture supernatant; also called Antibody ID 94
With B14, binding was characterised by a dissociation constant (Kd) of 1.18 nM, the koff was 0.00044 s⁻¹ and the kon turned out to be 372000 M⁻¹ s⁻¹.
